From patent US20210285971

Assays:
[1] = target: synthetic Aβ40 peptide, P05067
[2] = target: synthetic Aβ42 peptide, P05067
Sequence of synthetic Aβ42 peptide, P05067 (P05067 whole entry, looked up, tested part not stated): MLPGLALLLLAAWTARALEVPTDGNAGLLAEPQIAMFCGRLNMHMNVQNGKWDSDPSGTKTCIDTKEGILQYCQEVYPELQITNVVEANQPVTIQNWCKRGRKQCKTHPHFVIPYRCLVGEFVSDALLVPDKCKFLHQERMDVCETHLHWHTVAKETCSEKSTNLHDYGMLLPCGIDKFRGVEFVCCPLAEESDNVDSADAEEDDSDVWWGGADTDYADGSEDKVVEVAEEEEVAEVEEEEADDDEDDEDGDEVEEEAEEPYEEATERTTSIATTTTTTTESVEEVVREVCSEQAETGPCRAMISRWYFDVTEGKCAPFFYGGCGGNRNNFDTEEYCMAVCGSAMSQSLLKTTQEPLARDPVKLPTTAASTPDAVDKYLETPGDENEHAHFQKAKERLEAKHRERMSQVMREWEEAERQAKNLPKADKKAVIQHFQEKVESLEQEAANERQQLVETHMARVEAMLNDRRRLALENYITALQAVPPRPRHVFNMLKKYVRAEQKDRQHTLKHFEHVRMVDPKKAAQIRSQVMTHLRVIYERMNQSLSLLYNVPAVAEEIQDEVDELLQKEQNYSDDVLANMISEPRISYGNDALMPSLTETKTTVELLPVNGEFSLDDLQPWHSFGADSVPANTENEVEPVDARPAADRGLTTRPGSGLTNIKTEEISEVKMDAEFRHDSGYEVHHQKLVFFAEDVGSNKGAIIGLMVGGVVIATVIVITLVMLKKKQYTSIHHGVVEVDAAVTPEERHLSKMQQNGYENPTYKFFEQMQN

Sequence of synthetic Aβ40 peptide, P05067 (P05067 whole entry, looked up, tested part not stated): as above

B1: BACE1 from Fc purification (protein)
chain: ETDEEPEEPGRRGSFVEMVDNLRGKSGQGYYVEMTVGSPPQTLNILVDTGSSNFAVGAAPHPFLHRYYQRQLSSTYRDLRKGVYVPYTQGKWEGELGTDLVSIPHGPNVTVRANIAAITESDKFFINGSNWEGILGLAYAEIARPDDSLEPFFDSLVKQTHVPNLFSLQLCGAGFPLNQSEVLASVGGSMIIGGIDHSLYTGSLWYTPIRREWYYEVIIVRVEINGQDLKMDCKEYNYDKSIVDSGTTNLRLPKKVFEAAVKSIKAASSTEKFPDGFWLGEQLVCWQAGTTPWNIFPVISLYLMGEVTNQSFRITILPQQYLRPVEDVATSQDDCYKFAISQSSTGTVMGAVIMEGFYVVFDRARKRIGFAVSACHVHDEFRTAAVEGPFVTLDMEDCGYNIPQTDESTLMTIAY
cleavage in vitro analyzed by MALDI-MS [1]: cleavage of Aβ40 and Aβ42 by BACE1 in vitro
cleavage in vitro analyzed by MALDI-MS [2]: cleavage of Aβ40 and Aβ42 by BACE1 in vitro
